Reference: article PMC3852774

Assays:
[1] = target: Tth Man5 β-mannosidase from Thermotoga thermarum DSM 5069 (Thermotoga thermarum DSM 5069); experiment: SEC; Superdex 200 10/30 GL column on an AKTA FPLC system; MW from the calibration curve of the gel filtration column
purified protein = substrate: O=[N+]([O-])c1ccc(O[C@@H]2O[C@H](CO)[C@@H](O)[C@H](O)[C@@H]2O)cc1; experiment: purified protein; conditions: 50 mM imidazole-potassium buffer pH 5.5, 85°C, error given as ±0.5

Row | stoichiometry N [1] | Molecule | Km (purified protein) [mM] | Vmax (purified protein) [µmol/min/mg] | kcat (purified protein) [s⁻¹] | kcat/Km (purified protein) [M⁻¹ s⁻¹]
1 | 7 | Tth Man5 β-mannosidase from Thermotoga thermarum DSM 5069 (enzyme) | – | – | – | –
2 | – | Tth Man5 β-mannosidase (Pseudothermotoga thermarum DSM 5069) (protein) MDFLLGINYWSRSGAMYMWEDEYFNEEVIENEIIEMKNLGMNICRSFLFLPTFFPKPNKISEKHVERYLKFLNLCEEHGLKTLLTFIVGHMSGENFDPPFRNQRDLYMDEFMLQQQCFFVKSIVEKVRSSPAVYGYILSNEMPLYGGTGEPEKVLNWVKKLVEVIKSVDPTRPVGTGDGCWNVFGGENGFNLREISKIVDYLGPHVYLSETDEYRHSMIPEFVIRYLSQYDLPILYEEFGASSAQALDENIALYYREVLINCLINGAIGALGWCLNDFNYPNMKPYLHHPFELKFGIFKVDGARKPAAEEIVKFKNFVDSLENIQYPNAEACILVPSYYNKQYPFSFDDPKETFKHLLQATVLCAKAGFVVDLVEEENYKRWKSYKLIILPSERKYLATTWENLHKYVQAGGNLYISYYWGKYDFHQGIWSQNLESLIGCKLNLRYGLTSSLPSKVKLEYGGLTWKLNVEKCNEWEKSYAPIVSILETAESIELGQSDLQLVKNKVGSGKVFFINFPLEHILSVNEKINLSDLSHLIYRCIAKQASLNLCYCDNQRVRVRKIKSGRKTLYLIQNIAWDKEQVQTIFDNSSTYHVQIELDPKEYKLLNF | 4.36 ± 0.05 | 227 | 1920 | 441000
